The results in this text go back to patent US20230340151A1 (Pfizer, published 2023).

As usually defined, the Kd is the free concentration of one partner at which half of the binding sites on the other are occupied at equilibrium, for simple one-to-one binding. For orientation: koff means a measure of how fast the partners let go of each other. The kon is a measure of how fast the partners come together. As usually defined, the EC50 is the midpoint of the concentration-response curve.

The target in one assay is T1, GUCY2C-1608.
T1 construct: also called GUCY2c CD3 bispecific
Briefly: competition DELFIA ELISA: peptide 19 in solution competes with the plate-bound full GUCY2c extracellular domain for GUCY2C-1608. In general terms: An ELISA detects its analyte on a solid surface through an enzyme-linked reagent.

Assay [1] deals with T2, Human GUCY2c on tumor cells (T84, HT55) (human, UniProt P25092 24-1073). Briefly: cell-based or functional assay.
T2 sequence (P25092 24-1073 limits assumed): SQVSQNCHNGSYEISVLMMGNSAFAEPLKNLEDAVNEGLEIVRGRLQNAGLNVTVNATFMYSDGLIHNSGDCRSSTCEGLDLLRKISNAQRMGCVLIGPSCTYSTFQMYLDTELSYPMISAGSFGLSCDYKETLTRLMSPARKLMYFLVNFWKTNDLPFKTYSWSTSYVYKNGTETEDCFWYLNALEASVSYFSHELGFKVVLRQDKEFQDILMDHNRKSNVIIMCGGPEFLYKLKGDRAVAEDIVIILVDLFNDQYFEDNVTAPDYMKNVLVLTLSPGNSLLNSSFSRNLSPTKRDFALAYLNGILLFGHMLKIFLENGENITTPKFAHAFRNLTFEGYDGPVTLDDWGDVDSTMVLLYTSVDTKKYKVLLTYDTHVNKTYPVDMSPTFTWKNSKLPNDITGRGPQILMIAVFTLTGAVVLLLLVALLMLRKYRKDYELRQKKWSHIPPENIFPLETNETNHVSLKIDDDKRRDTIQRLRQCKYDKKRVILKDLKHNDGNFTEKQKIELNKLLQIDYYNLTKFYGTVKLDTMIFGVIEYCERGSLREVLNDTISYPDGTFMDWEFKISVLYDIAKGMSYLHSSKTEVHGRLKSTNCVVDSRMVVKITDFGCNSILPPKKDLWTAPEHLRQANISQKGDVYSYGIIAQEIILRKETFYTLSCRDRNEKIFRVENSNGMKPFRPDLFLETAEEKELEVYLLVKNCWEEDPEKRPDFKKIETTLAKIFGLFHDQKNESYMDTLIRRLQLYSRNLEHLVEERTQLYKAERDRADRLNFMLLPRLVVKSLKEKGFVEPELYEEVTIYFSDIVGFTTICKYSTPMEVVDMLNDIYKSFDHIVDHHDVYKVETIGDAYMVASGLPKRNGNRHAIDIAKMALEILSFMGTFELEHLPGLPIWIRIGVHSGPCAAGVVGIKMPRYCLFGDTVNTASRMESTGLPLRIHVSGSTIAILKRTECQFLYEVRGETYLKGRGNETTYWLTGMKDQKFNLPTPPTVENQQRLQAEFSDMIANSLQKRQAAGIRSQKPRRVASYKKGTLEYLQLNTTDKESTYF
Assay [2] has as its target T2, Human GUCY2c on tumor cells (T84, HT55). Briefly: cell-based or functional assay. This is another data set of the same source.
For assay [3], the target named is T3, Human GUCY2C full length (SEQ ID NO: 224), recombinant protein (human, UniProt P25092 24-430, limits assumed).
T3 construct: also called huGUCY2C; biotinylated human GUCY2c
T3 sequence (P25092 24-430 F281L limits assumed): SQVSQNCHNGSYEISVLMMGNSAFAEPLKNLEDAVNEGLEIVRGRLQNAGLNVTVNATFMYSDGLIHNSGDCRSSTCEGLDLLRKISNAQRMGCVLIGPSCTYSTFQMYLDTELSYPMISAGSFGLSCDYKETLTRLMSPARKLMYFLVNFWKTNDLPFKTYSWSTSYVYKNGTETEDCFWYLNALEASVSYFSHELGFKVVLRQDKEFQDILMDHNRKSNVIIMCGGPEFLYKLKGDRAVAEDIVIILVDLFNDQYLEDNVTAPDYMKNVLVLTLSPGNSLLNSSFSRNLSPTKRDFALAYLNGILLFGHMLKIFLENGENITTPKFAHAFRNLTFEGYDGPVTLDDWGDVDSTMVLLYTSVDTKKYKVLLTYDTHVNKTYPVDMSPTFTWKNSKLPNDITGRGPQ
Briefly: SPR, anti-human IgG capture, 25 C.

Assay [4] concerns the target T4, Cynomolgus GUCY2C-ECD Cleaved (cynomolgus, UniProt P25092 24-430 (human entry)).
T4 construct: also called CyGUCY2C
T4 chain: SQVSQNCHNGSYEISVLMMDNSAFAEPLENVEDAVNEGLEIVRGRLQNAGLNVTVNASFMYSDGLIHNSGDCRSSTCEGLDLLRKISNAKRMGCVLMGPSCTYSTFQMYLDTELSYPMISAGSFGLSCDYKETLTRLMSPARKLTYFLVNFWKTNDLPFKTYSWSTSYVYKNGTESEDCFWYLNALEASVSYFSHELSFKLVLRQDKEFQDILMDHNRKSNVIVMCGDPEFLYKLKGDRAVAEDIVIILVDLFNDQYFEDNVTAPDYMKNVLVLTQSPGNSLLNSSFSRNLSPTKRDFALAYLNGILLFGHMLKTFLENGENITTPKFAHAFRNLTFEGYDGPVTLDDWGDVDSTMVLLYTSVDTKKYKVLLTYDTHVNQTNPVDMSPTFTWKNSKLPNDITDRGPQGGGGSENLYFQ
Kind of assay: SPR, anti-human IgG capture, 25 C. (SPR reads the build-up and loss of mass on a sensor chip optically.)

Assay [5] concerns the target T5, Murine GUCY2C-ECD cleaved (mouse, UniProt Q3UWA6 20-433).
T5 sequence: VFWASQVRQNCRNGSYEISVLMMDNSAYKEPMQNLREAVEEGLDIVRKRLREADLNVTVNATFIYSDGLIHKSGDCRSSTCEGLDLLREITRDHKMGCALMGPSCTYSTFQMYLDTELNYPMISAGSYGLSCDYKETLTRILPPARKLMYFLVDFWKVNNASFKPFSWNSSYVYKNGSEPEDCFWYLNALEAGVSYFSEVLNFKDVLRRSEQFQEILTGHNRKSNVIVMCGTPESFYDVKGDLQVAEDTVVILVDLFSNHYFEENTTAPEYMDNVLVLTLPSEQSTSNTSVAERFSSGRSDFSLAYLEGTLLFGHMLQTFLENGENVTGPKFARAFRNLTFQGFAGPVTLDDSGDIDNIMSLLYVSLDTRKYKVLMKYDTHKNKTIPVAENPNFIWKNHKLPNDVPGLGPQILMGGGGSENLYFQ
Kind of assay: SPR, anti-human IgG capture, 25 C.

Another assay concerns the target T6, Human CD3 epsilon-delta (human).
T6 construct: Single-chain epsilon-linker-delta with His6; also called huCD3
T6 chain: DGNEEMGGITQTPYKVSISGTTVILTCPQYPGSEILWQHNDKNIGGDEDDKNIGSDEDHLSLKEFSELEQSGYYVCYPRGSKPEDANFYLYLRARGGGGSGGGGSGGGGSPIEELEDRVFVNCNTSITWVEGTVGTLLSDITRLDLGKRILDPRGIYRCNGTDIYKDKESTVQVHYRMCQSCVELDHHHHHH
Kind of assay: SPR, anti-human IgG capture, 25 C.

The target in assay [6] is T3, Human GUCY2C full length (SEQ ID NO: …). Briefly: SPR, GUCY2c directly immobilized, 25 C.
Assay [7] concerns the target T5, Murine GUCY2C-ECD cleaved. Kind of assay: SPR, GUCY2c directly immobilized, 25 C.
The target of another assay is T7, Human GUCY2C ECD-muIgG2a (human).
T7 construct: also called human GUCY2c ECD-mouse IgG2a Fc fusion protein; huGUCY2c-mIgG2a
T7 sequence (chain, as listed by the source limits assumed): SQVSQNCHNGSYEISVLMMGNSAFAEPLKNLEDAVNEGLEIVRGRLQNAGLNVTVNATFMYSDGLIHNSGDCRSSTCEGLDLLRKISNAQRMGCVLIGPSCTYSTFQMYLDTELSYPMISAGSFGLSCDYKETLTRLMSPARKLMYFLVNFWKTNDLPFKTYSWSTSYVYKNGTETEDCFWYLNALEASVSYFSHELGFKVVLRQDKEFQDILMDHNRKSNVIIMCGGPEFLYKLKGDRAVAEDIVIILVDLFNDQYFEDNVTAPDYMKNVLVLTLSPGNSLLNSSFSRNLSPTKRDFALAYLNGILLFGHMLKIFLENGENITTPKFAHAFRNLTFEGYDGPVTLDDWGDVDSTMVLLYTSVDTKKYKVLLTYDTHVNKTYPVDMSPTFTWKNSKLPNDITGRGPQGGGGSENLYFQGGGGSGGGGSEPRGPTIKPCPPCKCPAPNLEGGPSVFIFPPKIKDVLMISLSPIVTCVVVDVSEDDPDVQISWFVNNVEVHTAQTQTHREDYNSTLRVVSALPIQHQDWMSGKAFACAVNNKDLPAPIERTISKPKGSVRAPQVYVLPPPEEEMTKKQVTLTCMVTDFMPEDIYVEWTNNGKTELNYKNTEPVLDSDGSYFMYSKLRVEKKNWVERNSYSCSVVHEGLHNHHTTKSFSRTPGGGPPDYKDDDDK
Kind of assay: huCD3-huGUCY2C sandwich ELISA (CD3 coated).

Assay [8] has as its target T8, Cynomolgus CD3 epsilon-delta (cynomolgus).
T8 chain: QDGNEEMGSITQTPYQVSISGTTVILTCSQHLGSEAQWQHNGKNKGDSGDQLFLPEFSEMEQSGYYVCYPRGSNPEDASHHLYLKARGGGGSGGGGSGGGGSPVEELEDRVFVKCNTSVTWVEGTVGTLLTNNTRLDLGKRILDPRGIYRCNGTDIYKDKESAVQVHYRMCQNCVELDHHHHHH
Briefly: SPR, printed anti-His capture, 25 C (Table 33D).

Assay [9] addresses T2, Human GUCY2c on tumor cells (T84, HT55). Kind of assay: flow cytometry titration on T84 tumor cells (PE-A Geo Mean against Ab in nM). A general note: In flow cytometry, cells or beads pass a laser one at a time.
The target in assay [10] is T9, Human CD3 on naive human T cells (human, UniProt P07766 23-207).
T9 construct: whole, on cells; on cells it stands in the CD3/TCR complex
Kind of assay: flow cytometry titration on naive human T cells (PE-A Geo Mean against Ab in nM).

Where two headings read alike, the source gives them in different places.

B1: GUCY2C_ECD Peptide 19 (peptide)
peptide: NSGDCRSSTCEGLDLLRKIS
notes: also called GUCY2c peptide 19; GUCY2c-ECD peptide number 19
In the case of B1, in the assay with GUCY2C-1608, the “IC50 (read off the curve)” value was roughly 100 nM.

B2: GUCY2C-0240 (bispecific antibody)
chain 1: DIQLTQSPSSLSASVGDRVTITCRASESVDNYGISFMNWFQQKPGKAPKLLIYAASNPGSGVPSRFSGSGSGTDFTLTISSLQPEDFATYYCQQSKEVPYTFGQGTKLEIKGGGSGGGGEVQLVESGGGLVQPGGSLRLSCAASGFTFSDYYMTWVRQAPGKGLEWVAFIRNRARGYTSDHNPSVKGRFTISRDNAKNSLYLQMNSLRAEDTAVYYCARDRPSYYVLDYWGQGTTVTVSSGCPPCPAPEAAGAPSVFLFPPKPKDTLMISRTPEVTCVVVDVSHEDPEVKFNWYVDGVEVHNAKTKPREEQYNSTYRVVSVLTVLHQDWLNGKEYKCKVSNKALPAPIEKTISKAKGQPREPQVCTLPPSREEMTKNQVSLWCLVKGFYPSDIAVEWESNGQPENNYKTTPPVLDSDGSFFLYSKLTVDKSRWQQGNVFSCSVMHEALHNHYTQKSLSLSPG
chain 2: DIVMTQSPDSLAVSLGERATINCKSSQSLFNVRSRKNYLAWYQQKPGQPPKLLISWASTRESGVPDRFSGSGSGTDFTLTISSLQAEDVAVYYCKQSYDLFTFGSGTKLEIKGGGSGGGGEVQLVESGGGLVQPGGSLRLSCAASGYTFTTYWMQWVRQAPGKGLEWIGAIYPGDGMTTYTQKFKDRFTISADKAKNSAYLQMNSLRAEDTAVYYCVRKGMDYWGQGTLVTVSSGCPPCPAPEAAGAPSVFLFPPKPKDTLMISRTPEVTCVVVDVSHEDPEVKFNWYVDGVEVHNAKTKPREEQYNSTYRVVSVLTVLHQDWLNGKEYKCKVSNKALPAPIEKTISKAKGQPREPQVYTLPPCREEMTKNQVSLSCAVKGFYPSDIAVEWESNGQPENNYKTTPPVLDSDGSFFLVSKLTVDKSRWQQGNVFSCSVMHEALHNHYTQKSLSLSPG
With B2, the “T84 tumor cell EC50 (T cell cytotoxicity, E:T 5:1)” value in [1] and in [2] was 0.53 nM each time. Moreover, the Kd amounted to 37.9 nM in [3]; 91.2 nM in assay [4]; 317 nM in assay [5]; 3.73 nM in the assay with Human CD3 epsilon-delta; 37.9 nM in [6]; 42.3 nM in [7]. Moreover, the affinity in assay [8], expressed as Kd, was 4.71 nM. The koff in assay [3] is 0.00364 s⁻¹; in assay [4], 0.00234 s⁻¹; in assay [5] it was 0.00336 s⁻¹; in the assay with Human CD3 epsilon-delta, 0.00129 s⁻¹; in [6] it was 0.00364 s⁻¹; in assay [7], 0.00515 s⁻¹. Moreover, the koff in [8] is 0.00207 s⁻¹. The on-rate (kon) in assay [3] worked out at 96200 M⁻¹ s⁻¹; in [4], 26100 M⁻¹ s⁻¹; in assay [5], 10600 M⁻¹ s⁻¹; with Human CD3 epsilon-delta it was 347000 M⁻¹ s⁻¹; in assay [6] it was 96200 M⁻¹ s⁻¹; in assay [7], 122000 M⁻¹ s⁻¹. In assay [8], this molecule yielded a kon of 440000 M⁻¹ s⁻¹. Further, the EC50 with Human GUCY2C ECD-muIgG2a was determined as 0.0799 nM.

B3: GUCY2C-0247 (bispecific antibody)
chain 1: DIQLTQSPSSLSASVGDRVTITCRASESVDYYGTSLMQWYQQKPGKPPKLLIYAASNVESGVPSRFSGSGSGTDFTLTISSLQPEDFATYYCQQTRKVYTFGQGTKLEIKGGGSGGGGEVQLVESGGGLVQPGGSLRLSCAASGFTFSDYYMTWVRQAPGKGLEWVAFIRNRARGYTSDHNPSVKGRFTISRDNAKNSLYLQMNSLRAEDTAVYYCARDRPSYYVLDYWGQGTTVTVSSGCPPCPAPEAAGAPSVFLFPPKPKDTLMISRTPEVTCVVVDVSHEDPEVKFNWYVDGVEVHNAKTKPREEQYNSTYRVVSVLTVLHQDWLNGKEYKCKVSNKALPAPIEKTISKAKGQPREPQVCTLPPSREEMTKNQVSLWCLVKGFYPSDIAVEWESNGQPENNYKTTPPVLDSDGSFFLYSKLTVDKSRWQQGNVFSCSVMHEALHNHYTQKSLSLSPG
chain 2: DIVMTQSPDSLAVSLGERATINCKSSQSLFNVRSRKNYLAWYQQKPGQPPKLLISWASTRESGVPDRFSGSGSGTDFTLTISSLQAEDVAVYYCKQSYDLFTFGSGTKLEIKGGGSGGGGEVQLVESGGGLVQPGGSLRLSCAASGYTFTSYWMHWVRQAPGKGLEWIGEIKPSNGLTNYIEKFKNRFTISVDKAKNSAYLQMNSLRAEDTAVYYCTRTITTTEGYWFFDVWGQGTLVTVSSGCPPCPAPEAAGAPSVFLFPPKPKDTLMISRTPEVTCVVVDVSHEDPEVKFNWYVDGVEVHNAKTKPREEQYNSTYRVVSVLTVLHQDWLNGKEYKCKVSNKALPAPIEKTISKAKGQPREPQVYTLPPCREEMTKNQVSLSCAVKGFYPSDIAVEWESNGQPENNYKTTPPVLDSDGSFFLVSKLTVDKSRWQQGNVFSCSVMHEALHNHYTQKSLSLSPG
For the molecule B3, the “T84 tumor cell EC50 (T cell cytotoxicity, E:T 5:1)” value in [1] and in assay [2] was 0.07 nM throughout. The Kd in assay [3] came out at 4.65 nM; in assay [4], 4.35 nM; with Human CD3 epsilon-delta, 3.34 nM; in assay [6] it was 3.01 nM; in assay [7], 12.2 nM; in [8], 3.61 nM. For the same molecule, the Kd was 1.32 nM in assay [9] and 6.18 nM in assay [10]. Moreover, the koff amounted to 0.000457 s⁻¹ in assay [3]; 0.000369 s⁻¹ in assay [4]; 0.000985 s⁻¹ in the assay with Human CD3 epsilon-delta; 0.000433 s⁻¹ in assay [6]; 0.00183 s⁻¹ in assay [7]; 0.001 s⁻¹ in assay [8]. Further, the kon is 98200 M⁻¹ s⁻¹ in [3]; 85500 M⁻¹ s⁻¹ in assay [4]; 295000 M⁻¹ s⁻¹ with Human CD3 epsilon-delta; 144000 M⁻¹ s⁻¹ in [6]; 150000 M⁻¹ s⁻¹ in assay [7]; 280000 M⁻¹ s⁻¹ in assay [8]. This molecule also registered an EC50 with Human GUCY2C ECD-muIgG2a of 0.705 nM.
